Results: patent publication US20260250325A1, “Antiviral Polypeptide Membrane Fusion Inhibitor, and Preparation Method and Application Thereof” (priority 2025, published 2026)
Read-outs that look alike come from different tables or passages of the source. The star is where a group is joined. X1 = CC(C)CCCC(C)C1CCC2C3CC=C4CC(OC(=O)CCC(=O)*)CCC4(C)C3CCC12C

T1: F protein of RSV A long virus strain (respiratory syncytial virus, RSV A long virus strain), P12568
T1 chain: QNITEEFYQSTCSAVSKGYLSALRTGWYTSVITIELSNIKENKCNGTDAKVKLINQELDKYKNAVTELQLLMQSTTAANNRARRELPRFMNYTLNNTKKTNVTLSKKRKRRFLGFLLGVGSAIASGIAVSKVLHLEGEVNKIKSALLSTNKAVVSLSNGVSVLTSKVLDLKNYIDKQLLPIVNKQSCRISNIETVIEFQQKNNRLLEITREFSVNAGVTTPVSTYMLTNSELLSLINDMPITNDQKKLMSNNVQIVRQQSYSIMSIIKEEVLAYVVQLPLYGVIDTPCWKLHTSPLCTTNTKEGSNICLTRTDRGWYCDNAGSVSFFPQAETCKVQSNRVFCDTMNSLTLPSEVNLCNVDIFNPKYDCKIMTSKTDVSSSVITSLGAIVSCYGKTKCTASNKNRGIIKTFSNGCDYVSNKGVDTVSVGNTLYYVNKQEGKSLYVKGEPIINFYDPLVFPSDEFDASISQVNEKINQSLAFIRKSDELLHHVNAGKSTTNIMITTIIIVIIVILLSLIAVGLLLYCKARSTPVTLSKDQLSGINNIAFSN


Experiments:
[1] = test system: RSV A long virus strain; assay type: cell-based
In short: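 Plaque reduction in HEp-2 cells: virus (100 PFU/well) and serially diluted compound (8 concentrations) mixed 1 h, adsorbed 2 h, then overlaid with 0.8% CMC medium plus compound for 1 day at 37 °C. Spots counted after anti-RSV immunostaining; IC50 from normalized inhibition, CC50 from viability data.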

[2] = Cytotoxicity test in HEp-2 cells (CCK8 cell viability); assay type: cell-based; details: human
In short: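 Compound dilutions (final DMSO 0.5%) were applied for 1 day to HEp-2 cells plated at 30,000 per well the day before. CCK8 signal gave survival relative to cell and medium controls, and a four-parameter log(inhibitor)-response fit yielded CC50.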

[3] = molecular target: hPIV-N51 (139-189) (human parainfluenza virus (hPIV))
hPIV-N51 (139-189) (human parainfluenza virus (hPIV)), sequence (P06828 139-189): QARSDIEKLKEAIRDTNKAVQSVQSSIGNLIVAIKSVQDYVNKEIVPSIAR

[4] = molecular target: T1, F protein of RSV A long virus strain …; assay: cell-based or functional assay
[5] = substrate: F protein of hMPV virus strain A2 (human metapneumovirus, strain A2); assay: cell-based or functional assay
[6] = substrate: F protein of hMPV virus strain B1 (human metapneumovirus, strain B1); assay: cell-based or functional assay
[7] = substrate: F protein of hPIV Type 3 (hPIV3 C243) (human parainfluenza virus type 3, strain C243); assay: cell-based or functional assay
[8] = RSV A long virus strain, HEp-2 cells, plaque reduction, 1 day, read-out: IC50
[9] = HEp-2 cells, CCK8, 1 day, read-out: CC50

| Molecule | IC50 [1] [nM] | CC50 at 1 day [2] [nM] | IC50 [1, 8] [nM] | CC50 at 1 day [2, 9] [nM] | Kd [3] [nM] | IC50/nM, Cell fusion inhibition activity (plaque reduction, RSV A long strain, HEp-2 cells) [4] [nM] | EC50 (nM), plaque reduction, hMPV A2, Vero cells [5] [nM] | EC50 (nM), plaque reduction, hMPV B1, Vero cells [6] [nM] | EC50 (nM), plaque reduction, hPIV3 C243, LLC-MK2 cells [7] [nM] |
| --- | --- | --- | --- | --- | --- | --- | --- | --- | --- |
| Ac-SLEQVNKKIEQSLESLKKSDKINQSLEEVNKSDELLEAAAKK-NH2 [Compound 49] | > 8000 | > 8000 | – | – | – | – | – | – | – |
| Ac-WDEFDKKIEEVNKKIEESLKKIEESDKKLEEVNKKLEAAAKK(X1)-NH2 [Compound 9] | – | – | 95.7 | > 8000 | – | – | – | – | – |
| Ac-WDEFDKKIEEVNKKIEESLKKIEESDKKLEEVNKKLGSGSGK(X1)-NH2 [Compound 11] | – | – | 99.1 | > 8000 | – | – | – | – | – |
| DEFDASISQVNEKINQSLEEIRKSDELLHNEAAAKK (modifications not checked) [Compound 28] | – | – | – | – | 983000 | 12.4 | 58.6 | 13.8 | 54.4 |
| SDEFDKKIEEVNKKIEESLKKIEESDKKLGSGSGK (modifications not checked) [Compound 20] | – | – | – | – | 6800 | 19.8 | 7.47 | 4.27 | 59.5 |
| WDEFDKKIEEVNKKIEESLKKIEESDKKLEEVNEAAAKK (modifications not checked) [Compound 41] | – | – | – | – | 492 | 14.8 | 11.7 | 9.46 | 71.1 |
| WDEFDKKIEEVNKKIEESLKKIEESDKKLEEVNAEAAAKK (modifications not checked) [Compound 40] | – | – | – | – | 2270 | 11.7 | 13.8 | 7.47 | 22.2 |
| WDEFDASISQVNEKINQSLEEIRKSDELLHNEAAAKK (modifications not checked) [Compound 45] | – | – | – | – | 178000 | 12.2 | 200 | 13.1 | 36.3 |
| SDELVNKKIEFDKKINQSLKKIEESDKKKLEAAAKK (modifications not checked) [Compound 51] | – | – | – | – | 51.4 | 9.9 | 18.8 | 3.82 | 18.8 |
| WDEFDASISQVNEKINQSLEEIRKSDELLHNVNALEAAAKK (modifications not checked) [Compound 38] | – | – | – | – | 24500 | 14.6 | 128 | 16.6 | 26.4 |
| FDEEISQVNEKINQSLAFIRKSDELLHNVNAGKSTTEAAAKK (modifications not checked) [Compound 26] | – | – | – | – | 2580 | 12.8 | 103 | 2.85 | 1.35 |
| DEFDKKIEEVNKKIEESLKKIEESDKKLEAAAKK (modifications not checked) [Compound 17] | – | – | – | – | 314 | 17.6 | 8.78 | 3.61 | 52.6 |
| DEFDKKKIEEVNKKIEESLKKIEESDKKLEEVEAAAKK (modifications not checked) [Compound 22] | – | – | – | – | 20800 | 11.3 | 88.4 | 18 | 65.4 |
| YDELVFDASQVNEKINQSLEKIRKSDELLHNVGSGSGK (modifications not checked) [Compound 25] | – | – | – | – | 74600 | 28.7 | 86.4 | 38.1 | 29.4 |
| LVKKIDEFDASISQVNEKINQSLEEIRKSDELLHNVGSGSGK (modifications not checked) [Compound 29] | – | – | – | – | 1730 | 19.3 | 41.6 | 11.1 | 26.3 |
| DEFDKKIEEVNKKIEESLKKIEESDKKLEEVNEAAAKK (modifications not checked) [Compound 14] | – | – | – | – | 495 | 9.9 | 18.9 | 5.36 | 31.4 |
| WDEFDKKIEEVNKKIEESLKKIEESDKKLHNVEAAAKK (modifications not checked) [Compound 44] | – | – | – | – | 6860 | 12.4 | 14.6 | 6.6 | 27.9 |
| YDELVFDASQVNEKINQSLEKIRKSDELLHNVEAAAKK (modifications not checked) [Compound 30] | – | – | – | – | 1020 | 14.9 | 94.8 | 51.3 | 48.2 |
| WDEFDASISQVNEKINQSLEEIRKSDELLHNVNAGLGSGSGK (modifications not checked) [Compound 27] | – | – | – | – | 812 | 25.7 | 78.3 | 10.5 | 27.2 |
| WDEFDKKIEEVNKKIEESLKKIEESDKKLEAAAKK (modifications not checked) [Compound 13] | – | – | – | – | 2280 | 13 | 11.7 | 6.18 | 35.6 |
| SDEFDKKIEEVNKKIEESLKKIEESDKKLEAAAKK (modifications not checked) [Compound 16] | – | – | – | – | 5400 | 10.3 | 7.35 | 4.5 | 59 |
